Assay results taken from US20250333501A1 (University of California, published 2025).
Numbering of substitutions follows the chain as printed.

T1: CLDN6 endogenously expressed by human cancer cell lines (ARK2, OVCA429) (human, UniProt P56747 1-220)
T1 construct: Untagged endogenous protein; also called Endogenous CLDN6+
T1 sequence: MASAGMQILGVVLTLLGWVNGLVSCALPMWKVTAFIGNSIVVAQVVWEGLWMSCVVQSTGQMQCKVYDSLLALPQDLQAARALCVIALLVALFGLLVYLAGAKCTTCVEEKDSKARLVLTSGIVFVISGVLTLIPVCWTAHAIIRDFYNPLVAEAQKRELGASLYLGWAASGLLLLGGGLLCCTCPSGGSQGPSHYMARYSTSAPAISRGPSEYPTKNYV

T2: human CLDN6 fused to GFP, expressed on engineered HEK293T cells (HEK293T-CLDN6-mGFP) (human, UniProt P56747 1-220)
T2 construct: It calls residues 1-21 a signal peptide; also called Claudin-6; HEK293T-CLDN6-mGFP Artificial CLDN6+; not shown: mGFP tag
T2 sequence: T1 sequence

B1: AB3-3 (antibody, V domains shown)
VH: EVQLLESGGGLVQPGGSMRLSCAASGFTFSNYWMNWVRQAPGKGLEWVAQIRLKSDNYATHYADSVKGRFTISRDDSKNTVYLQMNSLRAEDTGVYYCNDGPPSGCWGQGTLLTVSS
VL: DIQMTQSPSSLSASVGDRVTITCRISENIYSYLAWYQQKPGKAPKLLVYNAKILVEGVPSRFSGSGSGTDFTLTISSLQPEDFGTYYCQHHYTVPWTFGQGTKLEIK
notes: also called Humanized AB 3-3
B2: AB3-2 (antibody, V domains shown)
VH: B1 VH
VL: B1 VL with V48I, G84A
notes: also called Humanized AB 3-2
B3: AB3-5 (antibody, V domains shown)
VH: B1 VH with C106Y
VL: B1 VL
notes: also called Humanized AB 3-5
B4: AB3-4 (antibody, V domains shown)
VH: B1 VH with C106Y
VL: B1 VL with V48I, G84A
notes: also called Humanized AB 3-4
B5: AB18-chim (antibody, V domains shown)
VH: QVQLKQSGPELEKPGASVKISCKASGYSFTGYNMNWVKQSNGKSLEWIGNIDPYYGGSTYNQKFTGKATLTVDKSSSTAYMQLKSLTSEDSAVYYCARERSGYVFSAMDYWGQGTSVTVSS
VL: NIMMTQSPSSLAVSAGEKVTMSCKSSQSVLFSSNQKNYLAWYQQKPGQSPRLLIYWASTRESGVPDRFTGSGSGTDFTLTISNVQAEDLAVYYCHQYLSSRTFGAGTKLELK
notes: 'chim' is the pre-humanized form (parental variable regions); also called pre-humanized (chimeric) form of AB18
B6: AB3-chim (antibody, V domains shown)
VH: EVKLEESGGGLVQPGGSMKLSCVASGFTFSNYWMNWVRQSPEKGLEWVAQIRLKSDNYATHYAESVKGRFTISRDDSKRSVYLQMNNLRAEDTGTYYCNDGPPSGCWGQGTTLIVSS
VL: DIQMTQSPASLSASVGETVTITCRISENIYSYLAWYQQKQGKSPQLLVYNAKILVEGVPSRFSGSGSGTQFSLKINSLQPEDFGNYYCQHHYTVPWTFGGGTKLEIK
notes: 'chim' is the pre-humanized form (parental variable regions); also called pre-humanized (chimeric) form of AB3
B7: AB18-3 (antibody, V domains shown)
VH: QVQLVQSGAEVKKPGASVKVSCKASGYSFTGYNMNWVRQAPGQGLEWMGNIDPYYGGSTYAQKFQGRVTMTVDTSTSTVYMELSSLRSEDTAVYYCARERSGYVFSAMDYWGQGTLVTVSS
VL: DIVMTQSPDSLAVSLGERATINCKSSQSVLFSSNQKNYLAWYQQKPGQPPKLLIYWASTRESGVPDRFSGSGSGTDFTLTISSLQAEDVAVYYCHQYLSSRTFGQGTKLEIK
notes: Humanized; also called Humanized AB 18-3
B8: AB18-4 (antibody, V domains shown)
VH: B7 VH
VL: DIVMTQSPDSLAVSLGERVTMNCKSSQSVLFSSNQKNYLAWYQQKPGQPPKLLIYWASTRESGVPDRFSGSGSGTDFTLTISSVQAEDVAVYYCHQYLSSRTFGQGTKLEIK
notes: also called Humanized AB 18-4
B9: AB18-6 (antibody, V domains shown)
VH: B7 VH with V20I, M48I, V68A, M70L, V79A
VL: B8 VL
notes: also called Humanized AB 18-6
B10: AB18-5 (antibody, V domains shown)
VH: B7 VH with V20I, M48I, V68A, M70L, V79A
VL: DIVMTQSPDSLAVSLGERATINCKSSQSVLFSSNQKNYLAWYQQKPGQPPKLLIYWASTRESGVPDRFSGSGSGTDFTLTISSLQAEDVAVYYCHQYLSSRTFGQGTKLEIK
notes: also called Humanized AB 18-5
B11: AB4-4 (antibody, V domains shown)
VH: QVQLVQSGAEVKKPGASVKMSCKASGYTFTSYTMHWIRQAPGQGLEWIGYINPSSTYTHYAQKFQGRATLTADTSTSTAYMELSSLRSEDTAVYYCSRGELGGFAYWGQGTLVTVSS
VL: DVVMTQSPLSLPVTLGQPASISCRSSQSLVHSDGNTYLNWYQQRPGQSPRLLIYKVSNRFSGVPDRFSGSGSGTDFTLKISRVEAEDVGVYYCSQSTHVPYTFGQGTKLEIK
notes: also called Humanized AB 4-4
B12: AB4-5 (antibody, V domains shown)
VH: B11 VH with L45Q
VL: B11 VL
notes: also called Humanized AB 4-5
B13: AB4-3 (antibody, V domains shown)
VH: B11 VH with M20V, I37V, I48M, A68V, L70M, A79V
VL: B11 VL
notes: also called Humanized AB 4-3
B14: AB1-7 (antibody, V domains shown)
VH: QVQLVQSGAEVKKPGASVKMSCKASGYTFTTYTMHWVRQAPGQGLEWIGFINPSSGYTDYAQKFQGRVTLTADTSTSTVYMELSSLRSEDTAVYYCANGDYYVAYWGQGTLVTVSS
VL: DIQLTQSPSSLSASVGDRVTMTCTASSSVSSTYFHWYQQKPGKAPKLLIYSTSNLASGVPSRFSGSGSGTDYTLTISSMQPEDAATYYCHQYHRSPLTFGQGTKLEIK
notes: Humanized; also called Humanized AB 1-7
B15: AB1-4 (antibody, V domains shown)
VH: B14 VH with M20V, I48M, L70M
VL: B14 VL
notes: also called Humanized AB 1-4
B16: AB1-8 (antibody, V domains shown)
VH: B14 VH
VL: B14 VL with L48W
notes: Humanized; also called Humanized AB 1-8
B17: AB1-6 (antibody, V domains shown)
VH: B14 VH
VL: B14 VL with L4M, M21I, M79L, A84F
notes: also called Humanized AB 1-6
B18: AB1-5 (antibody, V domains shown)
VH: B14 VH with M20V, I48M, L70M
VL: B14 VL with L48W
notes: also called Humanized AB 1-5
B19: AB1-3 (antibody, V domains shown)
VH: B14 VH with M20V, I48M, L70M
VL: B14 VL with L4M, M21I, M79L, A84F
notes: also called Humanized AB 1-3
B20: AB1-Chim (antibody, V domains shown)
VH: QVQLQQSAAELARPGASVKMSCKASGYTFTTYTMHWVKQRPGQGLEWIGFINPSSGYTDYNQKFKDRTTLTADKSSSTVYMQLSSLTSEDSAVYYCANGDYYVAYWGQGTLVTVSA
VL: QIVLTQSPAIMSASLGERVTMTCTASSSVSSTYFHWYQQKPGSSPKLWIYSTSNLASGVPRRFSGSASGTSYSLTISSMEAEDAATYYCHQYHRSPLTFGAGTKLELK
notes: 'chim' is the pre-humanized form (parental variable regions); also called pre-humanized (chimeric) form of AB1

The binders below were run against T1, CLDN6 endogenously expressed by human … (assay: FACS, 0.3 µg Ab, ARK2 cells).
Procedure: (§1) FACS assays were also carried out to determine relative antigen binding strengths of the humanized antibodies (at either 1.5 μg or 0.3 μg) for binding to CLDN6 as expressed by the indicated cancer cell lines. 2nd Ab only was used as a negative control.

| FACS fluorescence | Binder |
| --- | --- |
| 1160 | B1 |
| 14700 | B2 |
| 1280 | B3 |
| 1320 | B4 |
| 3440 | B5 |
| 17100 | B6 |
| 1080 | B7 |
| 1130 | B8 |
| 1390 | B9 |
| 1310 | B10 |
| 1050 | B11 |
| 967 | B12 |
| 1190 | B13 |
| 4440 | B14 |
| 3640 | B15 |
| 5810 | B16 |
| 2820 | B17 |
| 7490 | B18 |
| 2830 | B19 |
| 58800 | B20 |

The binders below were run against T1, CLDN6 endogenously expressed by human … (assay: FACS, 1.5 µg Ab, ARK2 cells).
Procedure: as §1

| FACS fluorescence | Binder |
| --- | --- |
| 54900 | B1 |
| 33600 | B2 |
| 2910 | B3 |
| 1460 | B4 |
| 9150 | B5 |
| 29100 | B6 |
| 1210 | B7 |
| 1380 | B8 |
| 1940 | B9 |
| 1330 | B10 |
| 1400 | B11 |
| 1200 | B12 |
| 1520 | B13 |
| 11200 | B14 |
| 10000 | B15 |
| 17600 | B16 |
| 7740 | B17 |
| 22400 | B18 |
| 10800 | B19 |
| 51900 | B20 |

These binders were tested against T1, CLDN6 endogenously expressed by human … (assay: FACS, 1.5 µg Ab, OVCA429 cells).

| FACS fluorescence | Binder |
| --- | --- |
| 88700 | B1 |
| 85900 | B2 |
| 2950 | B3 |
| 2960 | B4 |
| 25500 | B5 |
| 138000 | B6 |
| 2700 | B7 |
| 3220 | B8 |
| 6750 | B9 |
| 4270 | B10 |
| 1200 | B11 |
| 1350 | B12 |
| 1160 | B13 |
| 44700 | B14 |
| 34600 | B15 |
| 66000 | B16 |
| 29900 | B17 |
| 54300 | B18 |
| 27500 | B19 |
| 177000 | B20 |

These binders were tested against T2, human CLDN6 fused to GFP, expressed on … (assay: FACS, 0.3 µg Ab, 293T clone with human CLDN6).
In short: (§2)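 Humanized antibodies were tested by flow cytometry, essentially as in the source's direct-binding protocol, on engineered 293T clones expressing human CLDN6. Each antibody was used at 0.3 µg or 1.5 µg. In that protocol, EDTA-detached cells were incubated with Alexa Fluor 647 NHS ester-labelled antibody for 30 min on ice in the dark, washed and read on a BD Accuri C6 in channel FL4H. Fluorescence gives relative antigen binding strength.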

| FACS fluorescence | Binder |
| --- | --- |
| 251000 | B1 |
| 309000 | B2 |
| 13300 | B3 |
| 11600 | B4 |
| 73800 | B5 |
| 267000 | B6 |
| 30400 | B7 |
| 32400 | B8 |
| 26900 | B9 |
| 29400 | B10 |
| 14100 | B11 |
| 16800 | B12 |
| 14300 | B13 |
| 79200 | B14 |
| 102000 | B15 |
| 98800 | B16 |
| 120000 | B17 |
| 138000 | B18 |
| 142000 | B19 |
| 312000 | B20 |

The binders below were run against T2, human CLDN6 fused to GFP, expressed on … (assay: FACS, 1.5 µg Ab, 293T clone with human CLDN6).
In short: as §2

| FACS fluorescence | Binder |
| --- | --- |
| 340000 | B1 |
| 396000 | B2 |
| 48600 | B3 |
| 55800 | B4 |
| 135000 | B5 |
| 459000 | B6 |
| 58900 | B7 |
| 54400 | B8 |
| 58500 | B9 |
| 51900 | B10 |
| 49000 | B11 |
| 43400 | B12 |
| 47800 | B13 |
| 207000 | B14 |
| 197000 | B15 |
| 210000 | B16 |
| 227000 | B17 |
| 213000 | B18 |
| 142000 | B19 |
| 364000 | B20 |
